{
  "source": "patent US20130064834A1",
  "about": "(published 2013)",
  "binders": {"B1": {"name": "H1H316P (antibody, V domains shown)", "VH": "EVQLVESGGGLVQPGGSLRLSCAASGFTFNNYAMNWVRQAPGKGLDWVSTISGSGGTTNYADSVKGRFIISRDSSKHTLYLQMNSLRAEDTAVYYCAKDSNWGNFDLWGRGTLVTVSS", "VL": "not shown", "notes": "Fully human mAb made in CHO cells; also called mAb316P"}, "B2": {"name": "H1M300N (antibody, V domains shown)", "VH": "EMQLVESGGGLVQPGGSLRLSCAASGFTFSSHWMKWVRQAPGKGLEWVANINQDGSEKYYVDSVKGRFTISRDNAKNSLFLQMNSLRAEDTAVYYCARDIVLMVYDMDYYYYGMDVWGQGTTVTVSS", "VL": "not shown", "notes": "Fully human version made in CHO cells"}},
  "key": {"[1]": {"target": "T1, mouse PCSK9, myc-myc-his tagged (mouse, UniProt Q80W65 35-694)", "T1 construct": "also called mPCSK9-mmh; mPCSK9", "experiment": "SPR, mAb amine-coupled, 37C, pH 5.5", "source_text": "(§1) Briefly, mAbs were immobilized onto BIACORE™ CM5 sensor chips via amine coupling."}, "[2]": {"target": "T2, rat (Rattus norvegicus) PCSK9, myc-myc-his tagged (rat (Rattus norvegicus), UniProt P59996 31-691)", "T2 construct": "also called rPCSK9-mmh; rPCSK9", "T2 sequence (P59996 31-691 limits assumed)": "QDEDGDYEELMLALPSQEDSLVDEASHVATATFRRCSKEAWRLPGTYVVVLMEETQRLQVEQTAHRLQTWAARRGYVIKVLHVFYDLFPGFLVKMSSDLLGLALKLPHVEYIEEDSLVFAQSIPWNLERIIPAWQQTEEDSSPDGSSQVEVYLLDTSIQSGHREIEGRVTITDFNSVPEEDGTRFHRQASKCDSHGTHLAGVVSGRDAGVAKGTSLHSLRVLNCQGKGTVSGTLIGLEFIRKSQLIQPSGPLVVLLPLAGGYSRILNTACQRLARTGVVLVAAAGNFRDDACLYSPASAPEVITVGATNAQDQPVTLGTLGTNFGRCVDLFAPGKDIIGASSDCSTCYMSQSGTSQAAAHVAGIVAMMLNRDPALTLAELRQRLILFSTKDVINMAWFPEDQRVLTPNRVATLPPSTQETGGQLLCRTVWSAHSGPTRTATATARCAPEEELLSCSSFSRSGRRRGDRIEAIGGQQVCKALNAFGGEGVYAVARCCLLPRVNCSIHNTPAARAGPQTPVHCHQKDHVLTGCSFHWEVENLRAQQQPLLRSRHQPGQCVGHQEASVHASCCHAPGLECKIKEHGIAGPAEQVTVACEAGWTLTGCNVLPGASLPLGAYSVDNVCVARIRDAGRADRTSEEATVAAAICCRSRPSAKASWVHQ", "experiment": "SPR, mAb amine-coupled, 37C, pH 5.5", "source_text": "as §1"}, "[3]": {"target": "T3, Chimeric protein #3 (mPro-mCat-hC-term-mmh) (mouse; human)", "T3 chain": "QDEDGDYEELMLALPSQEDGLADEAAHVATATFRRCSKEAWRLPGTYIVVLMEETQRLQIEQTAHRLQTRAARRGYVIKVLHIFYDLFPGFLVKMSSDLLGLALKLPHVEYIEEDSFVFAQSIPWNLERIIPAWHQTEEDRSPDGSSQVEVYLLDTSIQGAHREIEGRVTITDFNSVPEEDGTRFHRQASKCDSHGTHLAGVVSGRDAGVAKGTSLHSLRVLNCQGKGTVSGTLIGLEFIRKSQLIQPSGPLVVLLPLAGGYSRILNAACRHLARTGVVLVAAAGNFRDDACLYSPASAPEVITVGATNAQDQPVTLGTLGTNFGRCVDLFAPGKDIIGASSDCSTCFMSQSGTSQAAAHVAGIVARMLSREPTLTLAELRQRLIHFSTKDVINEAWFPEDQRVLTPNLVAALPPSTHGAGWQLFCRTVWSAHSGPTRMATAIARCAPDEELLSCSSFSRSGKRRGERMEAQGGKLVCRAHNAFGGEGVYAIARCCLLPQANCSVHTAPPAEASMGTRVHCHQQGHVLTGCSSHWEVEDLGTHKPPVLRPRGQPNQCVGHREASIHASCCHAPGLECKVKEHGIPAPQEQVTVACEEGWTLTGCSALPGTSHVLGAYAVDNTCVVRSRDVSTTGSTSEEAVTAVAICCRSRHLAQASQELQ", "experiment": "ELISA, mAb coated, 1.7 nM antigen"}, "[4]": {"target": "T1, mouse PCSK9, myc-myc-his tagged", "experiment": "SPR, mAb amine-coupled, 37C, pH 7.4", "source_text": "as §1"}, "[5]": {"target": "T4, Human PCSK9-myc-myc-his (human, UniProt Q8NBP7 31-692)", "T4 construct": "also called hPCSK9-mmh; hPCSK9", "experiment": "SPR, mAb captured, 37C", "procedure": "Each selected antibody was captured at a flowrate of 2 μl/min for 6 min on a goat anti-human IgG polyclonal antibody surface created through direct chemical coupling to a BIACORE™ chip to form a captured antibody surface."}, "[6]": {"target": "T3, Chimeric protein #3 …", "experiment": "ELISA, mAb coated, 1.2 nM antigen;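 also: antigen allowed to bind for 1 h at room temperature, then captured protein revealed with an HRP-linked polyclonal anti-myc antibody and read as optical density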", "source_text": "(§2) After 1 hr binding at RT, the plate was washed and bound test protein detected using HRP-conjugated anti-myc polyclonal antibody (++=OD>1.0; +=OD 0.4-1.0; −=OD<0.4)."}, "[7]": {"target": "T5, hPCSK9(D374Y)-mmh (human, UniProt Q8NBP7 31-692)", "T5 construct": "also called hPCSK(D374Y)-mmh", "experiment": "ELISA, mAb coated, 1.2 nM antigen", "source_text": "as §2"}, "[8]": {"target": "Chimeric protein #2 (hPro-mCat-mC-term-mmh) (human; mouse, UniProt Q80W65 19-694)", "experiment": "ELISA, mAb coated, 1.2 nM antigen", "source_text": "as §2"}, "[9]": {"target": "T1, mouse PCSK9, myc-myc-his tagged", "experiment": "ELISA, mAb coated, 1.2 nM antigen", "source_text": "as §2"}, "[10]": {"target": "T6, his-tagged Syrian golden hamster (Mesocricetus auratus) PCSK9 (Syrian golden hamster (Mesocricetus …))", "T6 construct": "also called maPCSK9-h; maPCSK9", "T6 chain": "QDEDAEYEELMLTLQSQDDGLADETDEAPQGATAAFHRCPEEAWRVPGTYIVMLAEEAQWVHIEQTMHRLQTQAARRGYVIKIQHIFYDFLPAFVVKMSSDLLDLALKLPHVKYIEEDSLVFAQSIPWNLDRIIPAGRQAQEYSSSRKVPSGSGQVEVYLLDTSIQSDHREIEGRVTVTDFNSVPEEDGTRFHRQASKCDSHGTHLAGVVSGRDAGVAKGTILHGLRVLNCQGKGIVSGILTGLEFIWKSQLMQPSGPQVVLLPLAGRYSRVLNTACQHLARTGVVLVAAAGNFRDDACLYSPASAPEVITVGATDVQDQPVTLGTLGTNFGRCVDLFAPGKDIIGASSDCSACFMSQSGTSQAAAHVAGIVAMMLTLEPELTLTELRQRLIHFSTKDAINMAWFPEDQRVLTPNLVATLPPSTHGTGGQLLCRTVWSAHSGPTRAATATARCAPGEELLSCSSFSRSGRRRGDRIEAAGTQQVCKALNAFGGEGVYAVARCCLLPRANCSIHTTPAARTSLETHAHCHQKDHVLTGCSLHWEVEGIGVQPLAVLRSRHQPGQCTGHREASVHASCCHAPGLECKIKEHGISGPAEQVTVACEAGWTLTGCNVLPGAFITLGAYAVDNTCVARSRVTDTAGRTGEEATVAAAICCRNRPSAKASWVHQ", "experiment": "SPR, mAb amine-coupled, 25C, pH 7.4", "source_text": "as §1"}, "[11]": {"target": "T1, mouse PCSK9, myc-myc-his tagged", "experiment": "SPR, mAb amine-coupled, 25C, pH 7.4", "source_text": "as §1"}, "[12]": {"target": "T2, rat (Rattus norvegicus) PCSK9, …", "experiment": "SPR, mAb amine-coupled, 25C, pH 7.4", "source_text": "as §1"}, "[13]": {"target": "T7, tagged rhesus monkey (Macaca mulata) PCSK9 (rhesus monkey (Macaca mulata), UniProt A8T666 31-692)", "T7 construct": "also called mmPCSK9-mmh; mmPCSK9", "T7 sequence (A8T666 31-692 limits assumed)": "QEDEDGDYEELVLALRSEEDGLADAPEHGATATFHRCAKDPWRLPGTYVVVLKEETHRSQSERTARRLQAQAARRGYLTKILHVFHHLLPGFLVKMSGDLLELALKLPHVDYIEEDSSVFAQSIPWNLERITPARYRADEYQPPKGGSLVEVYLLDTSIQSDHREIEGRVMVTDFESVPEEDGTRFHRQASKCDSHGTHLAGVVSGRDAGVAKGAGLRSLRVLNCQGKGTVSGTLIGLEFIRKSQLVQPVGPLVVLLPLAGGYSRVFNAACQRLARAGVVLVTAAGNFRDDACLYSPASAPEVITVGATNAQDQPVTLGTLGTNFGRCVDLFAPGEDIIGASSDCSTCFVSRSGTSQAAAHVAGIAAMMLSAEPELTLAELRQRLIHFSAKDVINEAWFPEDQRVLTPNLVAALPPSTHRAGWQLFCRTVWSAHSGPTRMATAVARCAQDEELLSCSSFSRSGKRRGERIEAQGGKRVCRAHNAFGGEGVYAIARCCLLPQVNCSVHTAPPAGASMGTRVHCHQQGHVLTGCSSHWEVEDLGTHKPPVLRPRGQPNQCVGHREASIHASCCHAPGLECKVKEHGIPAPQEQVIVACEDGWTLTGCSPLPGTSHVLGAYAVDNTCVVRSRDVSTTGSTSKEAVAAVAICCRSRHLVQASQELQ", "experiment": "SPR, mAb captured on anti-hFc, 25C"}, "[14]": {"target": "T8, cynomolgus monkey (Macaca fascicularis) PCSK9, myc-myc-his tagged (cynomolgus monkey (Macaca fascicularis), UniProt A8T662 31-692 (Macaca nemestrina entry), limits assumed)", "T8 construct": "also called mfPCSK9-mmh; mfPCSK9", "T8 sequence (A8T662 31-692 limits assumed)": "as the sequence (A8T666 31-692 limits assumed) above, with P607A, K639E counted along it", "experiment": "SPR, mAb captured on anti-hFc, 25C"}, "[15]": {"target": "T5, hPCSK9(D374Y)-mmh", "experiment": "SPR, mAb captured on anti-hFc, 25C"}, "[16]": {"target": "T4, Human PCSK9-myc-myc-his", "experiment": "SPR, mAb captured on anti-hFc, 25C"}},
  "data": [
    {"binder": "B1", "values": [
      {"measurement": "Kd", "setting": "[1]", "result": 13.6, "unit": "nM"},
      {"measurement": "T1/2", "setting": "[1]", "result": 3, "unit": "min"},
      {"measurement": "Kd", "setting": "[2]", "result": 0.399, "unit": "nM"},
      {"measurement": "T1/2", "setting": "[2]", "result": 1, "unit": "min"},
      {"measurement": "OD", "setting": "[3]", "result": "> 1.5", "unit": "od"},
      {"measurement": "Kd", "setting": "[4]", "result": 12.2, "unit": "nM"},
      {"measurement": "T1/2", "setting": "[4]", "result": 3, "unit": "min"},
      {"measurement": "Kd", "setting": "[5]", "result": 1.08, "unit": "nM"},
      {"measurement": "T1/2", "setting": "[5]", "result": 11, "unit": "min"},
      {"measurement": "OD", "setting": "[6]", "result": "> 1", "unit": "od"},
      {"measurement": "OD", "setting": "[7]", "result": "> 1", "unit": "od"},
      {"measurement": "OD", "setting": "[8]", "result": "> 1", "unit": "od"},
      {"measurement": "OD", "setting": "[9]", "result": "> 1", "unit": "od"},
      {"measurement": "Kd", "setting": "[10]", "result": 8.35, "unit": "nM"},
      {"measurement": "T1/2", "setting": "[10]", "result": 8, "unit": "min"},
      {"measurement": "Kd", "setting": "[11]", "result": 4.46, "unit": "nM"},
      {"measurement": "T1/2", "setting": "[11]", "result": 10, "unit": "min"},
      {"measurement": "Kd", "setting": "[12]", "result": 24.1, "unit": "nM"},
      {"measurement": "T1/2", "setting": "[12]", "result": 2, "unit": "min"}
    ]},
    {"binder": "B2", "values": [
      {"measurement": "Kd", "setting": "[13]", "result": 0.61, "unit": "nM"},
      {"measurement": "T1/2", "setting": "[13]", "result": 79, "unit": "min"},
      {"measurement": "Kd", "setting": "[14]", "result": 1.5, "unit": "nM"},
      {"measurement": "T1/2", "setting": "[14]", "result": 45, "unit": "min"},
      {"measurement": "Kd", "setting": "[15]", "result": 0.9, "unit": "nM"},
      {"measurement": "T1/2", "setting": "[15]", "result": 65, "unit": "min"},
      {"measurement": "Kd", "setting": "[16]", "result": 0.74, "unit": "nM"},
      {"measurement": "T1/2", "setting": "[16]", "result": 110, "unit": "min"}
    ]}
  ]
}
